Assay results: the supplement of paper PMC6755084

B1: minF1; a variant is named by its letters at N, in order (parent)
chain: GAGACCGCAACTGAAAAGTTGTTNNNNAANNNNNGGNTNAATTTCTGCACGTAGAAGCAAAAGGC

Variants of: B1
Experiment: fraction ligated after 30 min (ligated reads / total reads); higher = more ligase activity
Settings: with F1*subA RNA substrate (template-directed ligation), 42 °C
Method in brief: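 Templates from an oligo pool encoding minimized ligase ribozyme variants were amplified by PCR, transcribed with T7, and purified on gels. Gel electrophoresis separated ligated from unligated RNAs, which were then reverse transcribed using barcoded primers and sequenced on a MiSeq, keeping core bases with quality ≥30. For each variant, fraction ligated equals ligated reads divided by total reads.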

In order of falling fraction ligated:
1. GAGACCGCAACTGAAAAGTTGTTATCAGAAAGATGGGTTGATTTCTGCACGTAGAAGCAAAAGGC  0.0398
2. GAGACCGCAACTGAAAAGTTGTTATAGATGGATGGGTTGAATTTCTGCACGTAGAAGCAAAAGGC  0.0314
3. GAGACCGCAACTGAAAAGTTGTTATAGAATGGATGGGTTGATTTCTGCACGTAGAAGCAAAAGGC  0.0158
4. GAGACCGCAACTGAAAAGTTGTTATAGAAATGGATGGTTGATTTCTGCACGTAGAAGCAAAAGGC  0.0113
5. GAGACCGCAACTGAAAAGTTGTTATAGAAATGGTGGGTTGATTTCTGCACGTAGAAGCAAAAGGC  0.00815
6. GAGACCGCAACTGAAAAGTTGTTATCAGAAAGGTGGGTTGATTTCTGCACGTAGAAGCAAAAGGC  0.00781
7. GAGACCGCAACTGAAAAGTTGTTATCAGAAAGGAGGTTGAATTTCTGCACGTAGAAGCAAAAGGC  0.0078
8. GAGACCGCAACTGAAAAGTTGTTATAGAATGGATGGTTGAATTTCTGCACGTAGAAGCAAAAGGC  0.00612
9. GAGACCGCAACTGAAAAGTTGTTATAGAAATGGAGGGTTGATTTCTGCACGTAGAAGCAAAAGGC  0.00598
10. GAGACCGCAACTGAAAAGTTGTTATAGAAATGGATGGTTAATTTCTGCACGTAGAAGCAAAAGGC  0.00557
11. GAGACCGCAACTGAAAAGTTGTTATAGAATGGATGGGTTAATTTCTGCACGTAGAAGCAAAAGGC  0.0055
12. GAGACCGCAACTGAAAAGTTGTTATCAGAAAGATGGGTTAATTTCTGCACGTAGAAGCAAAAGGC  0.00546
13. GAGACCGCAACTGAAAAGTTGTTATAGAAATGGTGGTTGAATTTCTGCACGTAGAAGCAAAAGGC  0.00545
14. GAGACCGCAACTGAAAAGTTGTTATCAGAAAGGATGGTTGATTTCTGCACGTAGAAGCAAAAGGC  0.00529
15. GAGACCGCAACTGAAAAGTTGTTATAGAAATATGGGTTGAATTTCTGCACGTAGAAGCAAAAGGC  0.00482
16. GAGACCGCAACTGAAAAGTTGTTATAGAAATGGAGGGTTAATTTCTGCACGTAGAAGCAAAAGGC  0.00474
17. GAGACCGCAACTGAAAAGTTGTTATAGAAATGTGGGTTGAATTTCTGCACGTAGAAGCAAAAGGC  0.00472
18. GAGACCGCAACTGAAAAGTTGTTATAGAATGATGGGTTGAATTTCTGCACGTAGAAGCAAAAGGC  0.00472
19. GAGACCGCAACTGAAAAGTTGTTATCAGAAAGGGGGTTGAATTTCTGCACGTAGAAGCAAAAGGC  0.0042
20. GAGACCGCAACTGAAAAGTTGTTATCAGAAAGGAGGGTTGATTTCTGCACGTAGAAGCAAAAGGC  0.00414
21. GAGACCGCAACTGAAAAGTTGTTATAGAAATGGGGGTTGAATTTCTGCACGTAGAAGCAAAAGGC  0.00409
22. GAGACCGCAACTGAAAAGTTGTTATAGAAATGGAGGTTGAATTTCTGCACGTAGAAGCAAAAGGC  0.00358
23. GAGACCGCAACTGAAAAGTTGTTATCAGAAAATGGGTTGAATTTCTGCACGTAGAAGCAAAAGGC  0.00354
24. GAGACCGCAACTGAAAAGTTGTTATCAGAAAGTGGGTTGAATTTCTGCACGTAGAAGCAAAAGGC  0.00347
25. GAGACCGCAACTGAAAAGTTGTTATAGAAATGATGGGTTGATTTCTGCACGTAGAAGCAAAAGGC  0.00341
26. GAGACCGCAACTGAAAAGTTGTTATCAGAAAGGATGGTTAATTTCTGCACGTAGAAGCAAAAGGC  0.00323
27. GAGACCGCAACTGAAAAGTTGTTATAGAAATGGTGGGTTAATTTCTGCACGTAGAAGCAAAAGGC  0.00303
28. GAGACCGCAACTGAAAAGTTGTTATAGAAATGATGGTTGAATTTCTGCACGTAGAAGCAAAAGGC  0.00301
29. GAGACCGCAACTGAAAAGTTGTTATAGAAGGATGGGTTGAATTTCTGCACGTAGAAGCAAAAGGC  0.00301
30. GAGACCGCAACTGAAAAGTTGTTATCAGAAAGGAGGGTTAATTTCTGCACGTAGAAGCAAAAGGC  0.00277
31. GAGACCGCAACTGAAAAGTTGTTATCAGAAAGAGGGTTGAATTTCTGCACGTAGAAGCAAAAGGC  0.00276
32. GAGACCGCAACTGAAAAGTTGTTATCAGAAAGGTGGTTGAATTTCTGCACGTAGAAGCAAAAGGC  0.0026
33. GAGACCGCAACTGAAAAGTTGTTATCAGAAAGGATGGGTTATTTCTGCACGTAGAAGCAAAAGGC  0.00242
34. GAGACCGCAACTGAAAAGTTGTTATCAGAAAGGTGGGTTAATTTCTGCACGTAGAAGCAAAAGGC  0.00198
35. GAGACCGCAACTGAAAAGTTGTTATAGAATGGTGGGTTGAATTTCTGCACGTAGAAGCAAAAGGC  0.0019
36. GAGACCGCAACTGAAAAGTTGTTATAGAAATGAGGGTTGAATTTCTGCACGTAGAAGCAAAAGGC  0.00181
37. GAGACCGCAACTGAAAAGTTGTTATAGAAATGGATGGGTTGTTTCTGCACGTAGAAGCAAAAGGC  0.00159
38. GAGACCGCAACTGAAAAGTTGTTATCAGAAAGATGGTTGAATTTCTGCACGTAGAAGCAAAAGGC  0.00113
39. GAGACCGCAACTGAAAAGTTGTTATCAGAAAGGATGGGTTGTTTCTGCACGTAGAAGCAAAAGGC  0.00104
40. GAGACCGCAACTGAAAAGTTGTTATAGAAATGATGGGTTAATTTCTGCACGTAGAAGCAAAAGGC  0.000906
41. GAGACCGCAACTGAAAAGTTGTTATAGAAATGGATGGGTTATTTCTGCACGTAGAAGCAAAAGGC  0.000429
42. GAGACCGCAACTGAAAAGTTGTTATAGAATGGAGGGTTGAATTTCTGCACGTAGAAGCAAAAGGC  0
